Laboratory results from patent publication US20070207522A1 (UNIVERSITY OF VIRGINIA PATENT FOUNDATION, published 2007).

Columns and labels:
human syndecan-1 [1] = biological target: T1, human syndecan-1 (human, UniProt P18827 23-310); assay: pull-down from lysates of transfected cells with intein-tagged deletion mutant
T1 construct: also called mammalian syndecan-1; CD138
T1 sequence (looked up): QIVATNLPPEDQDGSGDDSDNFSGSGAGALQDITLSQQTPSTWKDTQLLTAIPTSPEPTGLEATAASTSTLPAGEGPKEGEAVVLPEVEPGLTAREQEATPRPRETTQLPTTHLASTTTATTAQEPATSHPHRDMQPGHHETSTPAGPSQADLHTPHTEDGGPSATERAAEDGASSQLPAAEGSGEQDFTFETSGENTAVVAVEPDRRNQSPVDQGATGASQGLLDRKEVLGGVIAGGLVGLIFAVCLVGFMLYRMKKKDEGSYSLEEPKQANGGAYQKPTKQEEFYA
Description: (§1) After washing extensively in physiological salt-containing buffer, bound protein was eluted with 1 M NaCl, and identified with avidin-peroxidase using an ECL blot method. […] 293T cells stably transfected with human syndecan-2 or −4 were kindly provided by Dr. Atsushi Utani (Chiba University). […] Immunolocalization of syndecan-1 in human lacrimal glands was performed using anti-human syndecan-1 antibody (CD138).

human syndecan-1 [2] = biological target: T1, human syndecan-1; assay: lacritin affinity column, biotinylated cell surface proteins, elution with 1 M NaCl, sequencing
Description: as §1

human syndecan-4 = biological target: T2, human syndecan-4 (human, UniProt P31431 19-198); assay: pull-down from lysates of transfected 293T cells with intein-tagged lacritin
T2 sequence (looked up): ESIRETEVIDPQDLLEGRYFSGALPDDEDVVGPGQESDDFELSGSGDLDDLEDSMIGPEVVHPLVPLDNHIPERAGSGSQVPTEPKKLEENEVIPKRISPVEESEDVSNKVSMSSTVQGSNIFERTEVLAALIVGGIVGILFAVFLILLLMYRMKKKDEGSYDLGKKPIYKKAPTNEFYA
Description: as §1

human syndecan-2 = human syndecan-2 (human, UniProt P34741 19-201); assay: as above
Sequence of human syndecan-2 (P34741 19-201 limits assumed): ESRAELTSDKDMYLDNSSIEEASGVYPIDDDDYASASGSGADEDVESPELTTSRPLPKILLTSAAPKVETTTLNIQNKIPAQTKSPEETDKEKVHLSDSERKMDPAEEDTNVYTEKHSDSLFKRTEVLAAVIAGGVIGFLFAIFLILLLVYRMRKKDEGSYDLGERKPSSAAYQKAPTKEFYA
Description: as §1

human syndecan-1 [3] = biological target: T1, human syndecan-1; assay: pull-down from lysates of transfected cells with intein-tagged lacritin, SDS PAGE
Description: as §1

B1: intein-tagged lacritin deletion mutant C-25 (ligand)
chain: EDASSDSTGADPAQEAGTSKPNEEISGPAEPASPPETTTTAQETSAAAVQGTAKVTSSRQELNPLKSIVEKSILLTEQALAKAGKGMHGGVPGG
notes: Pull-downs used 'intein deletion mutants'; also called lacritin lacking 25 C-terminal amino acids; not shown: intein tag of vector pTYB11
B1: no binding (human syndecan-1 [1]).

B2: mature lacritin (recombinant, from pLAC, cleaved from intein) (ligand)
chain: EDASSDSTGADPAQEAGTSKPNEEISGPAEPASPPETTTTAQETSAAAVQGTAKVTSSRQELNPLKSIVEKSILLTEQALAKAGKGMHGGVPGGKQFIENGSEFAQKLLKKFSLLKPWA
notes: also called soluble lacritin
B2: binds (human syndecan-1 [2]).

B3: intein-tagged lacritin (pLAC lacritin-intein fusion) (ligand, not shown: small tags and cut ends)
chain: B2 chain
B3: no binding (human syndecan-4); no binding (human syndecan-2); binds (human syndecan-1 [3]).
